Source: paper PMC11348219
“And” between values parts separate entries of the source, which are not always exact repeats. Identical values can stand only once.

Biological target: mutant-1a anti-A scFv
Test: non-reducing SDS-PAGE; elution fraction EfA1 of nickel affinity chromatography on a Coomassie-stained 15% SDS-PAGE gel, non-reducing

stoichiometry N: 2 and 3
B1: mutant-1a anti-A scFv (scFv, V domains shown)
VH: QVQLQQPGAELVKPGTSVKLSCKASGYNFTSYWINWVKLRPGQCLEWIGDIYPGSGITNYNEKFKSKATLTVDTSSSTAYMQLSSLASEDSALYYCAGQYGNLWFAYWGQGTLVTVSG
VL: DIQMTQTTSSLSASLGDRVTISCRASQDINNYLNWYQQKPDGTVKLLIHYTSRLHSGVPSRFSGSGSGTDYSLTISNLEQEDIATYFCQQGNTLPWTFGCGTKLEIK
